What all share (conditions): protein: recombinant; tags: N-terminal 6xHis, thrombin site
Series [1] has as its target T1, eIF4A1(19-406) WT (human, UniProt P60842 19-406). The series is described as follows: thermal shift assay; PatA, AMP-PNP, 5 mM Mg2+; TSA: 5 uM eIF4A1(19-406), 50 uM RNA, 1 mM AMP-PNP, 100 uM inhibitor, 75 uM SYPRO Orange, 20 mM HEPES-KOH pH 7.5, 100 mM KCl, 5 mM MgCl2, 1 mM DTT, 10% glycerol; melt 10-95 C.
Series [2] has as its target T1, eIF4A1(19-406) WT. The experiment in a line: thermal shift assay; DMDAPatA, AMP-PNP, 5 mM Mg2+; TSA: 5 uM eIF4A1(19-406), 50 uM RNA, 1 mM AMP-PNP, 100 uM inhibitor, 75 uM SYPRO Orange, 20 mM HEPES-KOH pH 7.5, 100 mM KCl, 5 mM MgCl2, 1 mM DTT, 10% glycerol; melt 10-95 C.
In series [3] the target is T1, eIF4A1(19-406) WT. The experiment in a line: thermal shift assay; silvestrol, AMP-PNP, 5 mM Mg2+; TSA: 5 uM eIF4A1(19-406), 50 uM RNA, 1 mM AMP-PNP, 100 uM inhibitor, 75 uM SYPRO Orange, 20 mM HEPES-KOH pH 7.5, 100 mM KCl, 5 mM MgCl2, 1 mM DTT, 10% glycerol; melt 10-95 C.

T1 sequence (P60842 19-406): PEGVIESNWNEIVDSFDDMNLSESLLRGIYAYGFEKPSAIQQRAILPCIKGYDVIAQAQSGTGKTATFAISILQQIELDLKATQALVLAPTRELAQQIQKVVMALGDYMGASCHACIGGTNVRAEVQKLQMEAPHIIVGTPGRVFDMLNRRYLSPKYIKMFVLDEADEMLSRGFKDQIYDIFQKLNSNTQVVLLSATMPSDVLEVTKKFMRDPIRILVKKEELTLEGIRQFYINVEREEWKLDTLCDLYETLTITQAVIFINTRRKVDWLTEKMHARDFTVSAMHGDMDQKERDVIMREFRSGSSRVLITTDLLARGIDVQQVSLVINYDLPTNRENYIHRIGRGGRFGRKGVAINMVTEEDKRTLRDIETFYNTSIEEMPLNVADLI

Regarding UGUGUGUGUG (ssRNA) [(UG)5], the binding result with eIF4A1(19-406) WT [1] and with eIF4A1(19-406) WT [2] was “binds” in each case.
Consider AGAGAGAGAG (ssRNA) [(AG)5], for which the binding result in the series with eIF4A1(19-406) WT [1] and in the series with eIF4A1(19-406) WT [3] was “binds” throughout.
Regarding GAGAGAGAGA (ssRNA) [(GA)5], the binding result with eIF4A1(19-406) WT [1] and with eIF4A1(19-406) WT [3] was “binds” each time.
